Data as given in US7910550B2, “Human kunitz-type inhibitor with enhanced antifibrinolytic activity” (STC.UNM, priority 2004, dated 2011).

Tests used:
[1] = molecular target: factor VIIa-tissue factor complex (Homo sapiens, UniProt P08709); assay: Inhibition assay for factor VIIa-tissue factor amidolytic activity (S-2288); assay type: biochemical; design: purchased Novo Nordisk (Copenhagen, Denmark) for factor VIIa (provided as a gift); soluble tissue factor prepared in house by a published method (Petersen et al., 1996); settings: relative to wild-type KD1
Sequence of factor VIIa-tissue factor complex (P08709 213-466 limits assumed): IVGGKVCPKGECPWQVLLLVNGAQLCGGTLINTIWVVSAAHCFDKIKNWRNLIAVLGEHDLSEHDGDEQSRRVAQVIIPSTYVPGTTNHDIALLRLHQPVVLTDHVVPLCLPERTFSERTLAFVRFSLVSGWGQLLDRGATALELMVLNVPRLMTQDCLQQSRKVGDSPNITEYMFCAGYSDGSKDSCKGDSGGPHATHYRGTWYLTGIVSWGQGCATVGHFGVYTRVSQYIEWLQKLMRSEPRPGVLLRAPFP
Sequence of factor VIIa-tissue factor complex (P08709 61-212 partner limits assumed): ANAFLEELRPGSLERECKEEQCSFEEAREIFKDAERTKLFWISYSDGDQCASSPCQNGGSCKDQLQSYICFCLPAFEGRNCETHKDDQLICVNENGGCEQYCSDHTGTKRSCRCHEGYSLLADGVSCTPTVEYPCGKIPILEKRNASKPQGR
Sequence of factor VIIa-tissue factor complex (P13726 33-251 partner limits assumed): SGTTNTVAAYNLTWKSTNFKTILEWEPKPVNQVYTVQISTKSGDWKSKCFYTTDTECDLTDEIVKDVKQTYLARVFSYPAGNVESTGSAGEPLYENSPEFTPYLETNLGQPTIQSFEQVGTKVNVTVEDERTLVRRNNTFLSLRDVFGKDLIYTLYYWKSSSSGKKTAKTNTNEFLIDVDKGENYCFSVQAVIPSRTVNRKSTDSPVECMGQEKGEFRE
Method: Recombinant soluble human tissue factor (100 nM) and factor VIIa (50 nM) were incubated in a TBS-BSA buffer/5 mM CaCl2 for 15 minutes at 37° C. Following this incubation, aliquots (100 μl) were dispensed into a 96-well microtitration plate and treated with serial dilutions of inhibitors dissolved in TBS buffer. After 15 minutes of incubation, 30 μl of S-2288 (final concentration, 1 mM) was added to each well and the absorbance at 405 nm was determined as described earlier.
The apparent inhibition constant, Ki′ was determined using the non-linear regression data analysis program Ultrafitfv3.0 (Biosoft). Trypsin and plasmin inhibitory data were analyzed according to the following equation for a tight-binding inhibitor: vi=v0[√(Ki′+[I]0+[E]0)^2−4[I]0[E]0−(Ki′+[I]0−[E]0)]/2[E]0 where vi and v0 are the inhibited and uninhibited rates, respectively, and [I]0 and [E]0 are the total concentrations of inhibitor and enzyme, respectively. Factor VIIa-tissue factor inhibition data, where Ki>>[E]0, were analyzed according to the following equation: vi=v0/(1+[I]0/Ki′) Ki values were obtained by correcting for the effect of substrate according to Bieth et al. (Biochem. Med., 32:387-397, 1984), where Ki=Ki′/(1+[S]/Km) Results Molecular Modeling and Selection of Mutations

[2] = tested on: HT-1080 cells; assay: Apoptosis detection by AO/EB staining; assay type: cell-based, human; settings: 1 μM, 48 h; approximately 5% in vehicle-treated cells
Method: All cell lines were maintained in Dulbecco's minimal essential medium (DMEM), supplemented with heat-inactivated 10% fetal bovine serum and penicillin-streptomycin. The cells were cultured either in 6- or 12-well plates at 37° C. in a humidified atmosphere containing 6% CO2. At confluence, the cells were treated with fresh medium containing either wild-type TFPI-2, R24K KD1, or R24Q KD1. Cells were treated in duplicate with purified proteins at concentrations ranging from 0.5 μM to 10 μM for different time intervals. One set were also treated with PBS to serve as a control. The Limulus Amebocyte Lysate (LAL) assay was performed on each protein preparation to determine the presence of any endotoxin/LPS, and only trace amounts of endotoxin (<0.5 ng/L) were detected in each protein preparation.
Cells were grown to confluence in two-chamber culture slides containing 2 ml medium. For AO/EB staining, the cultures were treated with recombinant proteins as described above. […] Cells were viewed within 30 minutes of staining and counted using a Zeiss axiocam epifluorescence microscope (Carl Zeiss, Inc., Thornwood, N.Y.) equipped with a triple cube filter [DAPI/FITC/RITC]. […] Experiments were performed in triplicate, and a minimum of 100 total live and apoptotic cells were counted in each treatment.

[3] = tested on: VEGF-induced angiogenesis; assay: VEGF-induced chorioallantoic membrane assay; assay type: in vivo; settings: preliminary studies
[4] = tested on: FGF-2-induced angiogenesis; assay: FGF-2-induced cornea pocket assay; assay type: in vivo; settings: preliminary studies
[5] = tested on: HT-1080 fibrosarcoma xenografts; assay type: in vivo, SCID mice
Method: The relative mRNA abundance in the snap-frozen tumor xenograft samples was assessed by oligonucleotide-based microarray analysis using an Affymetrix […] Human Genome U133 set (Affymetrix, Inc., Santa Clara, Calif.). This microarray consists of two array units of over one million unique oligonucleotide features covering over 39,000 transcript variants that represent 33,000 of the best characterized human genes. Additional information regarding these chips is available on-line at the Affymetrix, Inc. website. Biotinylated cRNA probe preparation, processing, hybridization and normalization were performed as described in the Affymetrix […] Expression Analysis Manual. Florescence images were captured using a gene array scanner (Affymetrix, Inc., Santa Clara, Calif.) and expression analysis was performed using GeneSpring v5.1 software. The wild-type TFPI-2 transfected (WT) tumor ratio of medians was normalized with that obtained from mock-transfected (MT) tumors.

[6] = TFPI-2 expressing tumors over mock-transfected tumors
[7] = human fibrosarcomas secreting wild-type human TFPI-2

B1: R24K KD1: KD1 with lysine in place of arginine at position 24 (SEQ ID NO:3) (protein)
chain: DAAQEPTGNNAEICLLPLDYGPCKALLLRYYYDRYTQSCRQFLYGGCEGNANNFYTWEACDDACWRIEKVPKV
modifications: mutated active domain
reduction in inhibitory activity towards factor VIIa / VIIa-TF [1]: approximately five-fold

B2: TFPI-2: Human tissue factor pathway inhibitor-2, 213 amino acid polypeptide with three tandem Kunitz-type domains (SEQ ID NO:1) (protein, listed as Homo sapiens)
chain: DAAQEPTGNNAEICLLPLDYGPCRALLLRYYYDRYTQSCRQFLYGGCEGNANNFYTWEACDDACWRIEKVPKVCRLQVSVDDQCEGSTEKYFFNLSSMTCEKFFSGGCHRNRIENRFPDEATCMGFCAPKKIPSFCYSPKDEGLCSANVTRYYFNPRYRTCDAFTYTGCGGNDNNFVSREDCKRACAKALKKKKKMPKLRFASRIRKIRKKQF
apoptotic cells (AO/EB staining) [2]: 39%
anti-angiogenic effect [3]: potent and dose-dependent anti-angiogenic effect
anti-angiogenic effect [4]: potent and dose-dependent anti-angiogenic effect
Fold Change mRNA: Erythropoietin-producing hepatocyte kinase, EphB6 (NM_004445) [5]: −2.38 fold
Fold Change mRNA: ADAM-TS2 (NM_021599) [5, 6]: −4.62 fold
Fold Change mRNA: Alpha 1 chain of Type XII Collagen (AA669336) [5, 6]: +7.26 fold
Fold Change mRNA: Aquaporin 1 (NM_000385) [5, 6]: +2.30 fold
Fold Change mRNA: Biglycan (BC002416) [5, 6]: −2.29 fold
Fold Change mRNA: Bone morphogenetic protein 4 (D30751) [5, 6]: +2.79 fold
Fold Change mRNA: COUP-transcription factor (X16155) [5, 6]: −2.79 fold
Fold Change mRNA: CUB domain-containing protein 1 (CDCP1) (NM_022842) [5, 6]: −18.70 fold
Fold Change mRNA: Cell death regulator Aven (NM_020371) [5, 6]: −2.11 fold
Fold Change mRNA: Chondroitin sulfate proteoglycan 2 (versican) (D32039) [5, 6]: −2.13 fold
Fold Change mRNA: Collagen, type 1, alpha 1 (NM_000088) [5, 6]: +3.51 fold
Fold Change mRNA: Cytidine deaminase (NM_001785) [5, 6]: +35.30 fold
Fold Change mRNA: EEF1A2, Eukaryotic translation elongation factor 1 alpha 2 (NM_001958) [5, 6]: +6.85 fold
Fold Change mRNA: EGF-TM7-latrophilin-related protein (NM_022159) [5, 6]: −2.92 fold
Fold Change mRNA: EIF2Ak1, protein kinase, PKR (NM_002759) [5, 6]: +2.51 fold
Fold Change mRNA: Endothelin receptor type A (AU118882, NM_001957) [5, 6]: −2.90 fold
Fold Change mRNA: FLT, VEGFR1, Fms-related tyrosine kinase receptor (NM_002019) [5, 6]: −2.24 fold
Fold Change mRNA: Fibronectin 1 (AJ276395) [5, 6]: −3.80 fold
Fold Change mRNA: Formin like (FRL) (NM_005892) [5, 6]: −2.14 fold
Fold Change mRNA: Helicase, Basic leucine zipper transcription factor-1 (NM_001186) [5, 6]: −2.11 fold
Fold Change mRNA: Hemoglobin, epsilon 1, oxygen transport (NM_005330) [5, 6]: −7.63 fold
Fold Change mRNA: Interleukin-8 (IL-8, C—X—CL8) (NM_000584) [5, 6]: −6.99 fold
Fold Change mRNA: Junction plakoglobin (NM_021991) [5, 6]: −2.21 fold
Fold Change mRNA: LIM domain binding 2 (NM_001290) [5, 6]: −5.20 fold
Fold Change mRNA: LIM homeobox protein 6 (NM_014368) [5, 6]: +2.91 fold
Fold Change mRNA: Ligase III, DNA (NM_013975) [5, 6]: +2.04 fold
Fold Change mRNA: Lymphocyte antigen 75, gp200-MR6 (NM_002349) [5, 6]: +14.32 fold
Fold Change mRNA: MAGE-A1, Melanoma antigen family A1 (NM_004988) [5, 6]: −2.95 fold
Fold Change mRNA: Metastasis suppressor gene (NM_014751) [5, 6]: +2.06 fold
Fold Change mRNA: N-Cadherin (M34064) [5, 6]: −2.13 fold
Fold Change mRNA: Neuropeptide Y receptor (L01639) [5, 6]: −8.03 fold
Fold Change mRNA: Nox 4, NADPH oxidase 4 (NM_016931) [5, 6]: −2.46 fold
Fold Change mRNA: Oligophrenin 1 (NM_002547) [5, 6]: +2.95 fold
Fold Change mRNA: PBX-2, Pre-B cell leukemia transcription factor-2 (NM_002586) [5, 6]: −2.75 fold
Fold Change mRNA: Phenylalanine-tRNA synthetase (NM_006567) [5, 6]: +2.11 fold
Fold Change mRNA: Phorbolin-like protein MDS019 (NM_021822) [5, 6]: +2.80 fold
Fold Change mRNA: Protein tyrosine phosphatase, receptor type, U (U71075) [5, 6]: −2.48 fold
Fold Change mRNA: Reversion-inducing-cysteine-rich protein with kazal motif (RECK) (NM_021111) [5, 6]: +2.64 fold
Fold Change mRNA: S100 calcium-binding protein A4 (NM_002961) [5, 6]: +2.79 fold
Fold Change mRNA: Tumor necrosis factor, alpha-induced protein 2 (NM_006291) [5, 6]: +2.98 fold
Fold Change mRNA: Tumor protein D52-like 1 (NM_003287) [5, 6]: +2.10 fold
Fold Change mRNA: Vascular endothelial growth factor C (U58111) [5, 6]: −2.41 fold
Fold Change mRNA: Zinc finger protein 22 (KOX 15) (NM_006963, AA744771) [5, 6]: +29.27 fold
Fold Change mRNA: Zinc finger protein 185 (LIM domain) (NM_006291) [5, 6]: +5.05 fold
Fold Change mRNA: dermatopontin precursor (AI146848) [5, 6]: +2.87 fold
Fold Change mRNA: enigma (LIM domain protein) (AW206786) [5, 6]: −2.32 fold
Fold Change mRNA: fibrillin 1 precursor (AI264196) [5, 6]: −2.48 fold
Fold Change mRNA: platelet derived growth factor alpha polypeptide (NM_002607) [5, 6]: +2.53 fold
Fold Change mRNA: protein tyrosine kinase 7 (NM_002821) [5, 6]: +2.33 fold
Fold Change mRNA: sortilin 1 (SORTI) (BE742268) [5, 6]: −4.21 fold
Fold Change mRNA: thrombospondin 1 precursor (AI812030) [5, 6]: −3.39 fold
Fold Change mRNA: voltage-gated potassium channel activity (AF052169) [5, 6]: +2.48 fold
Fold Change mRNA: Chemokine (C—X—C motif), receptor 4 (fusin) (AF348491) ([5]; TFPI-2 expressing tumors over mock-transfected tumors, first of two values): −4.21 fold
Fold Change mRNA: Chemokine (C—X—C motif), receptor 4 (fusin) (AJ224869) ([5]; TFPI-2 expressing tumors over mock-transfected tumors, second of two values): −27.40 fold
IL-8 down regulated [5, 7]: 6.99 fold
VEGF-C down regulated [5, 7]: 2.41 fold
VEGF-R1 (FLT1) down regulated [5, 7]: 2.24 fold
